In patent US20210380703A1 (RIGEL PHARMACEUTICALS, published 2021):
Changes are numbered by the printed parent chain.

B1: 373_B04 (antibody, V domains shown)
VH: EVQLLESGGGLVQPGGSLRLSCAASGFTFSSYGMNWVRQAPGKGLEWVAGINYNSGYKGYADSVKGRFTISRDNSKNTLYLQMNSLRAEDTAVYYCARSANWHDTALDYWGQGTLVTVSS
VL: DIQMTQSPSSLSASVGDRVTITCRASQSILTYLNWYQQKPGKAPKLLIYAATSRASGVPSRFSGSGSGTDFTLTISSLQPEDFATYYCQQSYETPLTFGGGTKVEIK
B2: 373_B06 (antibody, V domains shown)
VH: B1 VH with S31D, G33S, S55G, K58T
VL: B1 VL with L33V, L47V, A55H, T94S
B3: 373_B10 (antibody, V domains shown)
VH: B1 VH with S30D, A49S, G50N, S55G, K58T, G59S
VL: B1 VL with T31S, E93D, T94L
B4: 373_B12 (antibody, V domains shown)
VH: B1 VH with S30D, A49S, G50S, K58T, G59S
VL: B1 VL with L30V, T31S, L33V, E93D, T94S
B5: 373_C02 (antibody, V domains shown)
VH: B1 VH with S30D, S31D, G33S, A49S
VL: B1 VL with T31S, L33V, E93N
B6: 373_C04 (antibody, V domains shown)
VH: B1 VH with G33S, G50N, K58T
VL: B1 VL with L30I, T31S, L33V, L47V, A51V, E93N, T94S
B7: 373_C06 (antibody, V domains shown)
VH: B1 VH with G33S, S55G, K58T
VL: B1 VL with L30V, T31S, L33V, L47V, E93D
B8: 373_C08 (antibody, V domains shown)
VH: B1 VH with G33S, G50N, S55G, K58T, G59S
VL: B1 VL with L30I, T31S, T52S, R54L, A55Q, E93N, T94N
B9: 373_C11 (antibody, V domains shown)
VH: B1 VH with G33S, A49S, K58T
VL: B1 VL with L33V, L47V, A51V
B10: 373_D01 (antibody, V domains shown)
VH: B1 VH with S30D, G33S, A49S, G59S, A106H
VL: B1 VL with T31S, L33V, L47V, E93D, T94S
B11: 373_D04 (antibody, V domains shown)
VH: B1 VH with S30D, G33S, A49S
VL: B1 VL with T31S, A55H, E93D, T94S
B12: 373_D05 (antibody, V domains shown)
VH: B1 VH with G33S, A49S
VL: B1 VL with T31S, L47V, E93D, T94S
B13: 373_D10 (antibody, V domains shown)
VH: B1 VH with S30D, G33S, A49S, G50N
VL: B1 VL with T31S, L33V, E93D, T94L
B14: 373_E01 (antibody, V domains shown)
VH: B1 VH with A49S, S55G
VL: B1 VL with L30V, T31S, L33V, A55H, E93N, T94N
B15: 373_E05 (antibody, V domains shown)
VH: B1 VH with S30D, A49S, G50N, S55G, K58T, G59S
VL: B1 VL with T31S, L33V, A51V, E93D, T94L
B16: 373_E07 (antibody, V domains shown)
VH: B1 VH with G50N, S55G, K58T, G59S
VL: B1 VL with L33V, R54L
B17: 373_E12 (antibody, V domains shown)
VH: B1 VH with G33S, G50N, S55G, K58T
VL: B1 VL with T31S, L33V, L47V, E93D
B18: 373_G10 (antibody, V domains shown)
VH: B1 VH with S31D, A49S, G50N, S55G, G59S
VL: B1 VL with L30V, T31S, L33V, E93D, T94L
B19: 373_G12 (antibody, V domains shown)
VH: B1 VH with G33S, A49S, G50N, S55G, K58T, G59S
VL: B1 VL with T31S, A51T, R54L, E93N, T94S
B20: 373_H01 (antibody, V domains shown)
VH: B1 VH with S30D, G33S, G50N, S55G, K58T
VL: B1 VL with T31S, L47V, E93D, T94N
B21: 373_H05 (antibody, V domains shown)
VH: B1 VH with S31D, G33S, G50N, S55G
VL: B1 VL with L33V, L47V
B22: 374_A07 (antibody, V domains shown)
VH: B1 VH with G33S, A49S
VL: B1 VL with T31S, L33V, A51V, E93D, T94L
B23: 374_B04 (antibody, V domains shown)
VH: B1 VH with G33S, A49S, G50N, K58T
VL: B1 VL with L30V, T31S, A51V, T94S
B24: 374_B06 (antibody, V domains shown)
VH: B1 VH with S30D, G33S, A106H
VL: B1 VL with L33V, E93D
B25: 374_B12 (antibody, V domains shown)
VH: B1 VH with S30D, G33S, S55G, K58T, A106H
VL: B1 VL with L30S, T31S, L47V, E93D, T94N
B26: 374_C03 (antibody, V domains shown)
VH: B1 VH with S30D, G33S, A49S, K58T, G59S
VL: B1 VL with E93D, T94S

The binders below were run against T1, Goat anti-Human Kappa (assay: ELISA, positive control).
T1 construct: Positive control of the ELISA; also called biotinylated goat anti-human kappa light chain
Summary of the method: (§1)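 Binding signal was read by ELISA after ACVR2A-specific monoclonal antibodies were tested against human ACVR2A and mouse ACVR2A, with human Fc as the negative control.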
Note: test concentration or dose not given here.

Binder	optical density
B1	3.25 OD
B2	3.24 OD
B3	3.15 OD
B4	3.27 OD
B5	3.15 OD
B6	3.2 OD
B7	3.16 OD
B8	3.19 OD
B9	3.17 OD
B10	3.04 OD
B11	3.15 OD
B12	3.25 OD
B13	3.11 OD
B14	2.99 OD
B15	3.24 OD
B16	3.23 OD
B17	3.12 OD
B18	3.26 OD
B19	3.26 OD
B20	3.12 OD
B21	3.22 OD
B22	3.07 OD
B23	3.3 OD
B24	3.08 OD
B25	3.05 OD
B26	3.06 OD

These binders were tested against T2, Human ACVR2A (human, UniProt P27037 20-135, limits assumed) (assay: ELISA).
T2 construct: also called activin receptor, type II A
T2 sequence (P27037 20-135 limits assumed): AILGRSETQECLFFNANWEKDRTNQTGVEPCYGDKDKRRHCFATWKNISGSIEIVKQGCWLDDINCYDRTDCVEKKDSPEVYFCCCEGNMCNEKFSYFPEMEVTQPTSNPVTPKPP
Summary of the method: as §1

Binder	optical density
B1	3.6 OD
B2	3.44 OD
B3	3.65 OD
B4	3.12 OD
B5	3.45 OD
B6	3.36 OD
B7	3.54 OD
B8	3.05 OD
B9	3.49 OD
B10	3.23 OD
B11	3.68 OD
B12	3.68 OD
B13	3.61 OD
B14	2.35 OD
B15	3.54 OD
B16	3.48 OD
B17	3.63 OD
B18	3.54 OD
B19	3.47 OD
B20	3.1 OD
B21	3.29 OD
B22	3.62 OD
B23	3.67 OD
B24	3.48 OD
B25	3.49 OD
B26	3.58 OD

Each binder was assayed against Mouse ACVR2A (mouse, UniProt P27038 20-135, limits assumed) (assay: ELISA).
Chain of Mouse ACVR2A (P27038 20-135 limits assumed): as the sequence (P27037 20-135 limits assumed) above, with K20R, V73I counted along it
Summary of the method: as §1

Binder	optical density
B1	3.62 OD
B2	3.43 OD
B3	3.6 OD
B4	3.08 OD
B5	3.47 OD
B6	3.5 OD
B7	3.53 OD
B8	3.19 OD
B9	3.47 OD
B10	3.57 OD
B11	3.65 OD
B12	3.73 OD
B13	3.61 OD
B14	2.56 OD
B15	3.59 OD
B16	3.54 OD
B17	3.33 OD
B18	3.56 OD
B19	3.29 OD
B20	3.28 OD
B21	3.29 OD
B22	3.71 OD
B23	3.64 OD
B24	3.6 OD
B25	3.33 OD
B26	3.61 OD
